“Also recorded” adds a separate entry of the source. Like-named read-outs stand apart in the source and are kept apart here.
Key:
[1] = biological target: T1, PrgX (Enterococcus faecalis (plasmid pCF10), UniProt Q04114 1-317); experiment: EMSA; apo (DMF); single shifted band; EMSA: 20 mM Tris-HCl pH 7.9, 0.1 M NaCl, 0.1 mM EDTA, 10% glycerol, 10 mM MgCl2, 1 ug poly-[d(A-T)], 0.1 ug poly-L-lysine, 20 ul, room temperature 15 min, 8 fmol DIG-labelled probe; conditions: protein: recombinant; tags: GST removed with PreScission (pGEX6p-1); chain copies: 2; label: 3' DIG-11-ddUTP; blunt
T1 sequence: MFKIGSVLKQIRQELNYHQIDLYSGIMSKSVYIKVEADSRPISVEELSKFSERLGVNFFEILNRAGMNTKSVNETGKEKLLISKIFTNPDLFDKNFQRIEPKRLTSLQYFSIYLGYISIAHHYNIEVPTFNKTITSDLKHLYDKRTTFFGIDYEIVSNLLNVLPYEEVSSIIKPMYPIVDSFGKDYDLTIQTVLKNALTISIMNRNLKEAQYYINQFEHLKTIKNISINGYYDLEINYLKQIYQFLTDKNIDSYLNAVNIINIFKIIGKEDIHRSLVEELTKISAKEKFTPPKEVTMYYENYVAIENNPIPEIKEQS

[2] = biological target: the molecule itself; experiment: SEC; Superdex 200 Hiload 16/600, 20 mmol/L Tris-HCl pH 8.0, 300 mmol/L NaCl; affinity purified HisPrgX, HisPrgX-C or HisPrgX-I loaded; calibrated with gel-filtration standards; no DNA
[3] = tested on: LT DNA (containing XBS1 and XBS2 sites); format: binding, Enterococcus faecalis (plasmid pCF10)
Source text: (§1) The LT DNA template containing XBS1 and XBS2 sites (LT DNA, pCF10 sequence from nt 8029 to nt8185 (Hirt et al., 2005)) was PCR amplified from pCF10 using primers as described in. The XBS1 DNA template only has XBS1 site (pCF10 sequence 8029–8131nt) was made by annealing oligos ‐129/‐47‐F (5′[…] 3′) and −129/−47R (5′[…] 3′) to obtain double‐stranded DNA. The XBS2 DNA template only has the XBS2 site (pCF10 sequence from 8109 to 8290; −66 to +114 relative to the prgQ transcription initiation site), and was PCR amplified from pCF10 using primers as described in Caserta et al., 2012. In DNA templates with 5‐bp or 10‐bp insertions, sequence GTACC or […] was inserted between XBS1 and XBS2 sites and at a position of 6‐bp after the XBS1 site. DNA probes were labeled at the 3′‐ends with DIG‐11‐ddUTP using the DIG Gel Shift kit (Roche) by following the manufacturer's instructions. EMSA assays were performed in 20 μl reactions: DIG‐labeled DNA, purified proteins, 1 μg of poly‐[d(A‐T)], 0.1 μg of poly‐L‐lysine, 1 × reaction buffer (20 mmol L^−1 Tris‐HCl, pH 7.9, 0.1 mol L^−1 NaCl, 0.1 mmol L^−1 EDTA, 10% glycerol, 0.01 mol L^−1 MgCl2). The reactions were incubated at room temperature for 15 min and loaded onto 5% polyacrylamide gels in 1 × TBE buffer (Tris, Borate, EDTA, pH 7.9). After electrophoresis at 100 V for 1.5 h, the DNA–protein complexes and DNA probes were electrotransferred onto a nylon membrane (Roche) at 6 V for 2 h using the GENIE electrophoretic blotter (Idea Scientific). DIG‐labeled DNA fragments were visualized by an enzyme immunoassay (DIG Gel Shift Kit, Roche) following the manufacturer's instructions. […] For the experiments reported here the powdered form of the peptides were initially solubilized in pure DMF at 0.5 mg/ml, and then diluted 10‐fold in KPBS for use as a working stock solution, which was diluted into the EMSA reactions to a final peptide concentration of 40 nmol L^−1.

[4] = tested on: LT DNA (prgQ promoter); format: binding, Enterococcus faecalis (plasmid pCF10)
Source text: as §1

[5] = tested on: P Q (prgQ promoter); conditions: purified PrgX, no peptide, ref Caserta et al., 2012, cited from earlier work
Source text: The target of PrgX‐peptide‐mediated regulation is the prgQ promoter (P Q), which controls expression of the majority of factors involved in pCF10 conjugation. PrgX binds specifically to two operator sites (XBS1 and XBS2) in the P Q region between prgX and prgQ. Because the lower‐affinity XBS2 site overlaps PQ, occupancy of XBS2 by PrgX could impede RNA polymerase binding to the promoter. Based on genetic and structural data, it was proposed that pairs of PrgX dimers could bind to XBS1 and XBS2, with the intervening DNA forming a loop that is stabilized by protein–protein interactions between t ... || It is interesting to consider transcription regulation in the pCF10 system by PrgX in relation to other well‐studied bacterial transcription factors. Many of the canonical transcription factors such as LacI are present in very low concentrations, and are modulated by low molecular weight ligands (co‐repressors, etc.) that are generally more abundant (Muller‐Hill, 1998). In contrast, wild‐type E. faecalis cells carrying pCF10 contain a large excess of PrgX (~15‐fold ratio of X dimers/XBSs) (Caserta et al., 2012), while the extracellular (and probably intracellular) concentrations of the peptide ...

[6] = tested on: +5 probe (5 bp inserted between XBS1 and XBS2 sites)
Source text: (§2) The LT DNA template containing XBS1 and XBS2 sites (LT DNA, pCF10 sequence from nt 8029 to nt8185 (Hirt et al., 2005)) was PCR amplified from pCF10 using primers as described in. The XBS1 DNA template only has XBS1 site (pCF10 sequence 8029–8131nt) was made by annealing oligos ‐129/‐47‐F (5′[…] 3′) and −129/−47R (5′[…] 3′) to obtain double‐stranded DNA. The XBS2 DNA template only has the XBS2 site (pCF10 sequence from 8109 to 8290; −66 to +114 relative to the prgQ transcription initiation site), and was PCR amplified from pCF10 using primers as described in Caserta et al., 2012. In DNA templates with 5‐bp or 10‐bp insertions, sequence GTACC or […] was inserted between XBS1 and XBS2 sites and at a position of 6‐bp after the XBS1 site. DNA probes were labeled at the 3′‐ends with DIG‐11‐ddUTP using the DIG Gel Shift kit (Roche) by following the manufacturer's instructions. EMSA assays were performed in 20 μl reactions: DIG‐labeled DNA, purified proteins, 1 μg of poly‐[d(A‐T)], 0.1 μg of poly‐L‐lysine, 1 × reaction buffer (20 mmol L^−1 Tris‐HCl, pH 7.9, 0.1 mol L^−1 NaCl, 0.1 mmol L^−1 EDTA, 10% glycerol, 0.01 mol L^−1 MgCl2). The reactions were incubated at room temperature for 15 min and loaded onto 5% polyacrylamide gels in 1 × TBE buffer (Tris, Borate, EDTA, pH 7.9). […]

[7] = tested on: +10 probe (10 bp inserted between XBS1 and XBS2 sites); format: binding, Enterococcus faecalis (plasmid pCF10)
Source text: as §2

[8] = tested on: LT DNA (XBS1 and XBS2 operator sites), P Q promoter region; format: binding, Enterococcus faecalis (plasmid pCF10); conditions: LT DNA 8 fmol; PrgX 38-568 nmol L^−1 preincubated 5 min at room temperature with 40 nmol L^−1 peptide (C, I)
Source text: as §1
EMSA assays were performed using 8 fmol of digoxigenin‐labeled LT DNA probes with increasing amounts of PrgX protein. PrgX was preincubated for 5‐min at room temperature with 40 nmol L^−1 of C (a) or I (b) before adding LT DNA. PrgX concentrations: lanes 2 and 6: 38 nmol L^−1; lanes 3 and 7: 76 nmol L^−1; lanes 4 and 8: 190 nmol L^−1; lanes 5 and 9: 568 nmol L^−1. (c) Cartoon showing the predicted products formed by binding PrgX to LT DNA.

[9] = tested on: P Q (prgQ promoter) lacZ reporter; experiment: β-galactosidase assay of P Q-lacZ reporter (pBK2, pBK2 + 5, pBK2 + 10) in E. faecalis; format: cell-based, Enterococcus faecalis; conditions: 10 ng/ml of C, 30 min at 37°C, PrgX in trans from pCF10, one experiment representative of three
Protocol: To construct plasmids pBK2 + 5 and pBK2 + 10, the intergenic region between prgQ and prgX was excised from plasmids pBKAdd5 and pBKAdd10 and was cloned into pBK2 using enzymes XhoI and BamHI. Plasmids pBKAdd5 and pBKAdd10 (have the 5‐bp and 10‐bp sequence inserted between XBS1 and XBS2 sites (Kozlowicz, 2005).
E. faecalis cultures were grown overnight in M9‐YEG broth at 37°C with selective antibiotics. Cultures were then diluted 1:10 in fresh medium and grown for 90 min at 37°C. For induction, a final concentration of 10 ng/ml of C was added and cells were incubated for additional 30 min at 37°C. A modified Miller assay was performed as previously described (Kozlowicz, Bae, & Dunny, 2004).
To examine the effects of looping in vivo, we introduced the +5 and +10 base pair insertions between XBS1 and XBS2 sites on the reporter plasmid pBK2, which has a pheromone‐inducible lacZ reporter gene fused downstream from P Q. This enables transcription from P Q to be monitored by measuring β‐galactosidase activity in cell extracts. We transformed these constructs into either OG1Sp or OG1Sp/pCF10 (to provide PrgX protein in trans) and the resulting strains were assayed for β‐galactosidase production in the presence or absence of C.
Figure 4 Expression of β‐galactosidase from E. faecalis cells containing pBK2, pBK2 + 5, and pBK2 + 10. […]

[10] = tested on: XBS1 and XBS2 operator sites; conditions: apo-PrgX, ref Bae et al., 2002, cited from earlier work
Source text: We determined effects of C and I on PrgX‐DNA binding using in vitro electrophoretic mobility shift assays (EMSAs).

[11] = tested on: B2 m1 DNA probe (XBS2 sequence changed); experiment: EMSA: PrgX and RNAP binding to B2 m1 probe (mutated XBS2); design: species or system Enterococcus faecalis (plasmid pCF10); conditions: PrgX 18, 54 nmol L^−1; RNAP 200, 240 nmol L^−1; RT, 15 min
Source text: as §2

B1: XBS1 DNA (dsDNA)
DNA 1: TGTTAATATTTTAATTTTAGGTATTGAATACGACACTCGAAGATGTGTTTATTAAGCTATATCCCTTTTTTTTAAAAAAAAATA
DNA 2: TATTTTTTTTTAAAAAAAAGGGATATAGCTTAATAAACACATCTTCGAGTGTCGTATTCAATACCTAAAATTAAAATATTAACA
[1]
  binding result: binds

B2: HisPrgX-I complex (complex)
chain 1: T1 sequence
chain 2: AITLIFI
notes: copies: 4 +
[2]
  stoichiometry N: 4

B3: PrgX: master transcription regulator PrgX, a repressor of transcription of the prgQ operon; apo form is a dimer in solution (protein)
chain: T1 sequence
modifications: left off: His tag, end not stated, kept
notes: master transcription regulator PrgX, a repressor of transcription of the prgQ operon; apo form is a dimer in solution
[3]
  fold higher K D of PrgX dimer to XBS1 site: about 10 fold
  fold higher K D of PrgX dimers bound to XBS2: ~1000 fold
[3]; EMSA densitometry, two-site binding polynomial, apo-PrgX (dimer) on LT DNA, mean ± SD of three independent EMSA experiments, read-out: K xbs1: K D of binding to XBS1 site
  Kd: 4.04 ± 3.36 nM
[4]
  effect on LT DNA shifts / RNAP binding: formation of the high‐molecular‐weight RNAP‐DNA species was nearly eliminated; also recorded: hinders RNAP binding to prgQ promoter
[5]
  repression of P Q in vitro: directly represses P Q
[5]; listed as apo‐PrgX
  repression of P Q in vitro: repress prgQ transcription in vitro
[6]
  shift of +5 probe (band I / band II): shifted the probe nearly completely to band I, with no distinct supershifted band II
[7]
  shift of +10 probe (band I / band II): binding profile was similar to LT DNA wild‐type probe
[8]
  effect on PrgX-DNA binding: shifted complexes, amount of band II (supershift): bound to the LT, producing two‐shifted complexes: band I and band II
[9]; pBK2 + 5
  lacZ expression (β-galactosidase), 5 bp insertion construct: no effect on lacZ activity
[9]; pBK2 + 10
  lacZ expression (β-galactosidase), 10 bp insertion construct: β‐galactosidase expression was repressed
[10]; listed as Apo‐PrgX
  relative affinity for XBS1 vs XBS2 / binding to probes lacking XBS1: binds to XBS1 with relatively higher affinity than to XBS2
[10]; listed as apo‐PrgX
  relative affinity for XBS1 vs XBS2 / binding to probes lacking XBS1: reduced binding of apo‐PrgX to DNA probes lacking XBS1 and virtually no supershifted species resembling Band II
[11]
  binding to B2 m1 probe: produced the band I shift, however, there was a dramatic reduction in band II

Reference: paper PMC5552905, “Mechanisms of peptide sex pheromone regulation of conjugation in Enterococcus faecalis” (MicrobiologyOpen, 2017)
